B1: Phage-3664 (peptide-180 library clone) (peptide)
peptide: PVPYCRPIWMCQGL
B2: Phage-3654 (Peptide-180 library clone) (peptide)
peptide: LALACVPPWMCQGL
B3: Phage-3690 (peptide)
peptide: ALSMCVPQWMCQGF
B4: Phage-3681 (peptide)
peptide: PHVVCIPEWMCAGF
B5: Phage-3650 (Peptide-180 library clone) (peptide)
peptide: EQVLCRPAWMCLGF
B6: Phage-3689 (peptide)
peptide: LPHACKPSWMCQGF
B7: Phage-3688 (peptide)
peptide: VVVQCVPKWMCYGF
B8: Phage-3656 (Peptide-180 library clone) (peptide)
peptide: ETSWCTPSWMCTGF
B9: Phage-3657 (Peptide-180 library clone) (peptide)
peptide: SMIYCIPSWMCEGM
B10: Phage-3691 (peptide)
peptide: VNERCIPDWMCVGF
B11: Phage-3662 (peptide-180 library clone) (peptide)
peptide: HVAACVPSWMCTGF
B12: Phage-3673 (peptide)
peptide: LGKICSPAWMCSGF
B13: Phage-3678 (peptide)
peptide: VIPKCEPKWMCHSL
B14: Phage-3677 (peptide)
peptide: LVKHCVPDWMCSGF
B15: Phage-3649 (Peptide-180 library clone) (peptide)
peptide: LQTLCIPPWMCMGF
B16: Phage-3670 (peptide-180 library clone) (peptide)
peptide: PELRCHPPWMCTGF
B17: Phage-3651 (Peptide-180 library clone) (peptide)
peptide: SVVMCVPEWMCQGF
B18: Phage-3672 (peptide-180 library clone) (peptide)
peptide: AAKYCEPSWMCYGF
B19: Phage-3652 (Peptide-180 library clone) (peptide)
peptide: PSAVCVPTWMCSGF
B20: Phage-3692 (peptide)
peptide: DHMMCVPPWMCDGI
B21: Phage-3679 (peptide)
peptide: MIKMCKPYWMCEAM
B22: Phage-3682 (peptide)
peptide: DERMCRPAWMCEGL
B23: Phage-3675 (peptide)
peptide: DAMMCKPTWMCDGF
B24: Phage-3658 (Peptide-180 library clone) (peptide)
peptide: IDRHCTPSWMCYGF
B25: Phage-3666 (peptide-180 library clone) (peptide)
peptide: EVRRCEPSWMCSVV
B26: Phage-3648 (Peptide-180 library clone) (peptide)
peptide: PLVLCIPQWMCQAM
B27: Phage-3671 (peptide-180 library clone) (peptide)
peptide: ISIKCEPQWMCDGL
B28: Phage-3663 (peptide-180 library clone) (peptide)
peptide: EGPLCKPAWMCRGF
B29: Phage-3683 (peptide)
peptide: STSWCSPPWMCEGF
B30: Phage-3659 (peptide-180 library clone) (peptide)
peptide: DHKLCKPEWMCAGL
B31: Phage-3680 (peptide)
peptide: YTVQCVPTWMCAGL
B32: Phage-3668 (peptide-180 library clone) (peptide)
peptide: LQVLCVPDWMCAGF
B33: Phage-3669 (peptide-180 library clone) (peptide)
peptide: GHVYCEPQWMCYGF
B34: Phage-3687 (peptide)
peptide: MIAMCKPPWMCIGL
B35: Phage-3686 (peptide)
peptide: ADMRCVPDWMCHGF
B36: Phage-3667 (peptide-180 library clone) (peptide)
peptide: YIQACKPRWMCNGF
B37: Phage-3676 (peptide)
peptide: PEARCIPMWMCERL
B38: Phage-3661 (peptide-180 library clone) (peptide)
peptide: VAIACTPMWMCTGF
B39: Phage-3693 (peptide)
peptide: SEHYCVPNWMCAGL
B40: Phage-3685 (peptide)
peptide: EMSLCIPAWMCSVF
B41: Phage-3684 (peptide)
peptide: ERPACVPMWMCTGL
B42: Phage-3660 (peptide-180 library clone) (peptide)
peptide: MVSHCVPLWMCAGF
B43: Phage-3655 (Peptide-180 library clone) (peptide)
peptide: VERMCEPLWMCAGL
B44: Phage-3665 (peptide-180 library clone) (peptide)
peptide: ESRFCVPAWMCAAV
B45: Phage-3674 (peptide)
peptide: GTMKCEPAWMCEGF
B46: Phage-3653 (Peptide-180 library clone) (peptide)
peptide: VQILCRPQWMCEGL

What was measured:
PSMA Fab (006 PSMA Fab) [1] = biological target: T1, PSMA Fab (006 PSMA Fab) (biotinylated (site not stated)); assay: clonal phage ELISA on captured PSMA Fab, wells pre-incubated with PSMA antigen as competitor
T1 construct: also called Anti-PSMA Fab

PSMA Fab (006 PSMA Fab) [2] = biological target: T1, PSMA Fab (006 PSMA Fab); assay: clonal phage ELISA on biotinylated PSMA Fab captured on neutravidin plates, anti-M13 HRP detection;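 further: crude clonal phage supernatants tested, before phage were added, wells were pretreated with PSMA antigen in blocking buffer or with blocking buffer only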
Procedure: (§1) Clonal phage were harvested as crude supernatants and screened via standard ELISAs. […] Prior to the addition of clonal phage. wells were incubated with blocking buffer and PSMA antigen or blocking buffer alone. Without washing or aspirating, clonal phage supernatants were then added to the wells and incubated for a short time. Wells were then washed followed by detection of bound phage using a horse radish conjugated anti-M13 antibody.

PSMA Fab (006 PSMA Fab) [3] = biological target: T2, PSMA Fab (006 PSMA Fab); assay: clonal phage ELISA on captured PSMA Fab, wells pre-incubated with PSMA antigen as competitor
T2 construct: also called Anti-PSMA Fab; anti-PSMA Fab
Procedure: as §1

PSMA Fab (006 PSMA Fab) [4] = biological target: T2, PSMA Fab (006 PSMA Fab); assay: clonal phage ELISA on biotinylated PSMA Fab captured on neutravidin, blocking buffer alone, anti-M13 HRP detection;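 further: clonal phage were tested as crude supernatants, and the signal reflects phage still bound to the wells after washing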
Procedure: as §1

Anti-PSMA Fab [5] = biological target: T3, Anti-PSMA Fab; assay: clonal phage ELISA; biotinylated PSMA Fab on neutravidin plate, blocking buffer alone; anti-M13 HRP detection;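 further: crude clonal phage supernatants added without washing to wells pretreated with blocking buffer with or without PSMA antigen, short incubation, then washed before detecting bound phage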
T3 construct: also called 006 PSMA Fab
Procedure: as §1

Anti-PSMA Fab [6] = biological target: T3, Anti-PSMA Fab; assay: clonal phage ELISA; biotinylated PSMA Fab on neutravidin plate, wells pre-incubated with PSMA antigen as competitor; anti-M13 HRP detection;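 further: crude clonal phage supernatants added to antigen-treated wells without a wash, incubated briefly, then bound phage read out via horse radish–conjugated anti-M13 antibody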
Procedure: as §1

PSMA Fab (006 PSMA Fab) [7] = biological target: T4, PSMA Fab (006 PSMA Fab); assay: clonal phage ELISA on biotinylated PSMA Fab captured on neutravidin plates, anti-M13 HRP detection;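 further: crude clonal phage supernatants tested, before phage were added, wells were pretreated with PSMA antigen in blocking buffer or with blocking buffer only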
T4 construct: also called Anti-PSMA Fab
Procedure: as §1

PSMA Fab (006 PSMA Fab) [8] = biological target: T4, PSMA Fab (006 PSMA Fab); assay: clonal phage ELISA on captured PSMA Fab pre-incubated with PSMA antigen as competitor;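 further: crude clonal phage supernatants added to wells without washing away the PSMA competitor, bound phage detected by HRP-conjugated anti-M13 antibody, reference wells received blocking buffer only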
Procedure: as §1

| Binder | Phage binding ELISA signal, Anti-PSMA Fab in presence of PSMA (PSMA Fab (006 PSMA Fab) [1]) | Phage binding ELISA signal, Anti-PSMA Fab (PSMA Fab (006 PSMA Fab) [2]) | Phage binding ELISA signal, Anti-PSMA Fab (PSMA Fab (006 PSMA Fab) [7]) | Phage binding ELISA signal, Anti-PSMA Fab with PSMA antigen (PSMA Fab (006 PSMA Fab) [8]) | also measured |
| --- | --- | --- | --- | --- | --- |
| B1 | 0.0736 | 1.49 |  |  |  |
| B2 |  |  |  |  | phage binding ELISA signal on anti-PSMA Fab in presence of PSMA (PSMA Fab (006 PSMA Fab) [3]): 0.0897; phage binding ELISA signal on anti-PSMA Fab (PSMA Fab (006 PSMA Fab) [4]): 1.5 |
| B3 |  |  |  |  | Phage binding ELISA signal, Anti-PSMA Fab (Anti-PSMA Fab [5]): 1.46; Phage binding ELISA signal, Anti-PSMA Fab in presence of PSMA (Anti-PSMA Fab [6]): 0.0597 |
| B4 |  |  | 1.47 | 0.068 |  |
| B5 |  |  |  |  | phage binding ELISA signal on anti-PSMA Fab in presence of PSMA (PSMA Fab (006 PSMA Fab) [3]): 0.0974; phage binding ELISA signal on anti-PSMA Fab (PSMA Fab (006 PSMA Fab) [4]): 1.5 |
| B6 |  |  |  |  | Phage binding ELISA signal, Anti-PSMA Fab (Anti-PSMA Fab [5]): 1.47; Phage binding ELISA signal, Anti-PSMA Fab in presence of PSMA (Anti-PSMA Fab [6]): 0.0636 |
| B7 |  |  |  |  | Phage binding ELISA signal, Anti-PSMA Fab (Anti-PSMA Fab [5]): 1.47; Phage binding ELISA signal, Anti-PSMA Fab in presence of PSMA (Anti-PSMA Fab [6]): 0.0764 |
| B8 |  |  |  |  | phage binding ELISA signal on anti-PSMA Fab in presence of PSMA (PSMA Fab (006 PSMA Fab) [3]): 0.0752; phage binding ELISA signal on anti-PSMA Fab (PSMA Fab (006 PSMA Fab) [4]): 1.5 |
| B9 |  |  |  |  | phage binding ELISA signal on anti-PSMA Fab in presence of PSMA (PSMA Fab (006 PSMA Fab) [3]): 0.0844; phage binding ELISA signal on anti-PSMA Fab (PSMA Fab (006 PSMA Fab) [4]): 1.5 |
| B10 |  |  |  |  | Phage binding ELISA signal, Anti-PSMA Fab (Anti-PSMA Fab [5]): 1.46; Phage binding ELISA signal, Anti-PSMA Fab in presence of PSMA (Anti-PSMA Fab [6]): 0.0649 |
| B11 | 0.0842 | 1.49 |  |  |  |
| B12 |  |  | 1.48 | 0.0608 |  |
| B13 |  |  | 1.48 | 0.0649 |  |
| B14 |  |  | 1.48 | 0.101 |  |
| B15 |  |  |  |  | phage binding ELISA signal on anti-PSMA Fab in presence of PSMA (PSMA Fab (006 PSMA Fab) [3]): 0.0685; phage binding ELISA signal on anti-PSMA Fab (PSMA Fab (006 PSMA Fab) [4]): 1.5 |
| B16 | 0.0997 | 1.49 |  |  |  |
| B17 |  |  |  |  | phage binding ELISA signal on anti-PSMA Fab in presence of PSMA (PSMA Fab (006 PSMA Fab) [3]): 0.0734; phage binding ELISA signal on anti-PSMA Fab (PSMA Fab (006 PSMA Fab) [4]): 1.5 |
| B18 | 0.105 | 1.48 |  |  |  |
| B19 |  |  |  |  | phage binding ELISA signal on anti-PSMA Fab in presence of PSMA (PSMA Fab (006 PSMA Fab) [3]): 0.0815; phage binding ELISA signal on anti-PSMA Fab (PSMA Fab (006 PSMA Fab) [4]): 1.5 |
| B20 |  |  |  |  | Phage binding ELISA signal, Anti-PSMA Fab (Anti-PSMA Fab [5]): 1.46; Phage binding ELISA signal, Anti-PSMA Fab in presence of PSMA (Anti-PSMA Fab [6]): 0.119 |
| B21 |  |  | 1.48 | 0.0794 |  |
| B22 |  |  | 1.47 | 0.102 |  |
| B23 |  |  | 1.48 | 0.0662 |  |

| Binder | Phage binding ELISA signal, Anti-PSMA Fab in presence of PSMA (PSMA Fab (006 PSMA Fab) [1]) | Phage binding ELISA signal, Anti-PSMA Fab (PSMA Fab (006 PSMA Fab) [2]) | Phage binding ELISA signal, Anti-PSMA Fab (PSMA Fab (006 PSMA Fab) [7]) | Phage binding ELISA signal, Anti-PSMA Fab with PSMA antigen (PSMA Fab (006 PSMA Fab) [8]) | also measured |
| --- | --- | --- | --- | --- | --- |
| B24 |  |  |  |  | phage binding ELISA signal on anti-PSMA Fab in presence of PSMA (PSMA Fab (006 PSMA Fab) [3]): 0.0562; phage binding ELISA signal on anti-PSMA Fab (PSMA Fab (006 PSMA Fab) [4]): 1.5 |
| B25 | 0.0749 | 1.49 |  |  |  |
| B26 |  |  |  |  | phage binding ELISA signal on anti-PSMA Fab in presence of PSMA (PSMA Fab (006 PSMA Fab) [3]): 0.0663; phage binding ELISA signal on anti-PSMA Fab (PSMA Fab (006 PSMA Fab) [4]): 1.51 |
| B27 | 0.307 | 1.48 |  |  |  |
| B28 | 0.0963 | 1.49 |  |  |  |
| B29 |  |  | 1.47 | 0.0631 |  |
| B30 | 0.0672 | 1.5 |  |  |  |
| B31 |  |  | 1.47 | 0.0609 |  |
| B32 | 0.091 | 1.49 |  |  |  |
| B33 | 0.0791 | 1.49 |  |  |  |
| B34 |  |  |  |  | Phage binding ELISA signal, Anti-PSMA Fab (Anti-PSMA Fab [5]): 1.47; Phage binding ELISA signal, Anti-PSMA Fab in presence of PSMA (Anti-PSMA Fab [6]): 0.0954 |
| B35 |  |  | 1.47 | 0.0874 |  |
| B36 | 0.0874 | 1.49 |  |  |  |
| B37 |  |  | 1.48 | 0.0885 |  |
| B38 | 0.113 | 1.49 |  |  |  |
| B39 |  |  |  |  | Phage binding ELISA signal, Anti-PSMA Fab (Anti-PSMA Fab [5]): 1.46; Phage binding ELISA signal, Anti-PSMA Fab in presence of PSMA (Anti-PSMA Fab [6]): 0.0995 |
| B40 |  |  | 1.47 | 0.0677 |  |
| B41 |  |  | 1.47 | 0.0929 |  |
| B42 | 0.0616 | 1.49 |  |  |  |
| B43 |  |  |  |  | phage binding ELISA signal on anti-PSMA Fab in presence of PSMA (PSMA Fab (006 PSMA Fab) [3]): 0.0832; phage binding ELISA signal on anti-PSMA Fab (PSMA Fab (006 PSMA Fab) [4]): 1.5 |
| B44 | 0.089 | 1.49 |  |  |  |
| B45 |  |  | 1.48 | 0.106 |  |
| B46 |  |  |  |  | phage binding ELISA signal on anti-PSMA Fab in presence of PSMA (PSMA Fab (006 PSMA Fab) [3]): 0.0669; phage binding ELISA signal on anti-PSMA Fab (PSMA Fab (006 PSMA Fab) [4]): 1.5 |

— US20260242478A1 (published 2026)
